# Source: article PMC13083842 (Communications Biology, 2026)
# B1: tocilizumab-TGN 1:25 (antibody, V domains shown)
# VH: QVQLQESGPGLVRPSQTLSLTCTVSGYSITSDHAWSWVRQPPGRGLEWIGYISYSGITTYNPSLKSRVTMLRDTSKNQFSLRLSSVTAADTAVYYCARSLARTTAMDYWGQGSLVTVSS
# VL: DIQMTQSPSSLSASVGDRVTITCRASQDISSYLNWYQQKPGKAPKLLIYYTSRLHSGVPSRFSGSGSGTDFTFTISSLQPEDIATYYCQQGNTLPYTFGQGTKVEIK
# notes: as the heavy chain of m6; as the light chain of m6; Heterogeneous conjugate; See m6 for the DrugBank ids; also called the 1:25 variant; source: HEK293T, transfected, purified (Protein A, SEC), then conjugated with Tris-GalNAc-PEG5-sulfo-NHS ester at 1:25
# B2: siltuximab (antibody, V domains shown)
# VH: EVQLVESGGKLLKPGGSLKLSCAASGFTFSSFAMSWFRQSPEKRLEWVAEISSGGSYTYYPDTVTGRFTISRDNAKNTLYLEMSSLRSEDTAMYYCARGLWGYYALDYWGQGTSVTVSS
# VL: QIVLIQSPAIMSASPGEKVTMTCSASSSVSYMYWYQQKPGSSPRLLIYDTSNLASGVPVRFSGSGSGTSYSLTISRMEAEDAATYYCQQWSGYPYTFGGGTKLEIK
# notes: heavy chain of siltuximab, chimeric (human-murine) anti-IL-6 antibody; light chain of siltuximab; Full-length IgG; also called wildtype siltuximab; unmodified siltuximab; source: HEK293T, transfected, purified from supernatant (Protein A, SEC); copies: 2 + 2
# B3: siltuximab-TGN 1:10 (antibody, V domains shown)
# VH: B2 VH
# VL: B2 VL
# notes: as the heavy chain of m1; as the light chain of m1; Heterogeneous conjugate; See m1 for the DrugBank ids; also called TGN-modified siltuximab variant 1:10; source: HEK293T, transfected, purified (Protein A, SEC), then conjugated with Tris-GalNAc-PEG5-sulfo-NHS ester at 1:10; copies: 2 + 2
# B4: siltuximab-TGN 1:25 (antibody, V domains shown)
# VH: B2 VH
# VL: B2 VL
# notes: as the heavy chain of m1; as the light chain of m1; Heterogeneous conjugate; See m1 for the DrugBank ids; also called the 1:25 variant; source: HEK293T, transfected, purified (Protein A, SEC), then conjugated with Tris-GalNAc-PEG5-sulfo-NHS ester at 1:25; copies: 2 + 2
# B5: siltuximab-TGN 1:1 (antibody, V domains shown)
# VH: B2 VH
# VL: B2 VL
# notes: as the heavy chain of m1; as the light chain of m1; Heterogeneous conjugate; See m1 for the DrugBank ids; also called TGN-modified siltuximab variant 1:1; source: HEK293T, transfected, purified (Protein A, SEC), then conjugated with Tris-GalNAc-PEG5-sulfo-NHS ester at 1:1; copies: 2 + 2
# B6: siltuximab-TGN 1:5 (antibody, V domains shown)
# VH: B2 VH
# VL: B2 VL
# notes: as the heavy chain of m1; as the light chain of m1; Heterogeneous conjugate; See m1 for the DrugBank ids; also called TGN-modified siltuximab variant 1:5; source: HEK293T, transfected, purified (Protein A, SEC), then conjugated with Tris-GalNAc-PEG5-sulfo-NHS ester at 1:5; copies: 2 + 2
# Experiments:
# [1] = target: T1, soluble IL-6 receptor (sIL-6R) (human (from the printed accession …, UniProt P08887)); experiment: SPR; IL-6R amine-coupled on a CM5 chip (Biacore T200); tocilizumab variants as analytes, multi-cycle kinetics, 0.39 to 100 nM; global fit, 1:1 model; details: both partners purified
# T1 construct: interleukin-6 receptor (IL-6R), soluble variant, residues 20-355, UniProt P08887; Two versions were made: 1; C-terminal His9-Tag; 2; C-terminal Twin-Strep-Tag, 3xGS-Linker and TEV cleavage site; Only the ELISA on sASGPR (anti-His-HRP detection) tells that the His9 version was used; Strongly and heterogeneously glycosylated; also called wild-type sIL-6R; unmodified sIL-6R; source: Expi293F, …
# interleukin-6 (IL-6) = target: T2, interleukin-6 (IL-6) (human, UniProt P05231); experiment: SPR; IL-6 amine-coupled on a CM5 chip (Biacore T200); analytes in multi-cycle kinetics, 0.39 to 100 nM, 30 µL/min, 180 s association, 1200 s dissociation, HBS-N + 10 mM CaCl2; global fit, 1:1 model; where koff was below the detection limit KD was estimated from kon and the theoretical maximum koff; details: both partners purified
# T2 construct: interleukin-6, human; A biotinylated IL-6 was used in the cell uptake assays; for SPR and ELISA the IL-6 was amine-coupled or coated
# T2 sequence (P05231 30-212): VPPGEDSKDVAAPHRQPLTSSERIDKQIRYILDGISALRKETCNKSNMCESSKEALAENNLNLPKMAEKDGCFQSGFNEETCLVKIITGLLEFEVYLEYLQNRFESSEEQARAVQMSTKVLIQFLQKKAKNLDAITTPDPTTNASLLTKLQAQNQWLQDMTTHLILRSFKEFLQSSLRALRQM
fold weaker affinity than wildtype tocilizumab [1],Kd (interleukin-6 (IL-6)),koff (interleukin-6 (IL-6)),kon (interleukin-6 (IL-6)),Binder
≤ 5 fold,–,–,–,B1
–,< 0.045 nM,< 1e-05 s⁻¹,445000 M⁻¹ s⁻¹,B2
–,< 0.045 nM,< 1e-05 s⁻¹,–,B3
–,< 0.045 nM,< 1e-05 s⁻¹,221000 M⁻¹ s⁻¹,B4
–,< 0.045 nM,< 1e-05 s⁻¹,–,B5
–,< 0.045 nM,< 1e-05 s⁻¹,–,B6
